Test results reported in patent US20240309103A1 (Regeneron, published 2024).

Columns and labels:
[1] = target: T1, monkey NPR1 extracellular domain expressed with a C-terminal myc-myc-hexahistidine (mfNPR1-MMH) (monkey, UniProt P16066 33-473 (human entry)); assay: SPR, mAb captured, 25 C
T1 construct: also called monomeric monkey NPR1
T1 chain: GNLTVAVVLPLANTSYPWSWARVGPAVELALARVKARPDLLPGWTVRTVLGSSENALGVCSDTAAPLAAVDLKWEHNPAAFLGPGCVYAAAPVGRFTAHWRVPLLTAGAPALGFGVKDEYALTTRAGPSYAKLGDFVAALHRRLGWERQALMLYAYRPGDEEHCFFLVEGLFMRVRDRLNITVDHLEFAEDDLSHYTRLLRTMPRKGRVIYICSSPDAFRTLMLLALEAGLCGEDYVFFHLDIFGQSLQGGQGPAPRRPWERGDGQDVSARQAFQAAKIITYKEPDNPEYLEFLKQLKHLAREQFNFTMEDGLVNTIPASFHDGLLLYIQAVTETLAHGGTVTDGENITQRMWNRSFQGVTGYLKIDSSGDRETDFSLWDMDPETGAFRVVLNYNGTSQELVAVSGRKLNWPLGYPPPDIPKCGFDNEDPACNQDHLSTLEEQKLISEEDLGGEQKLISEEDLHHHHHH
Procedure: (§1) Equilibrium dissociation constant (KD) for different NPR1 reagents binding to purified anti-NPR1 monoclonal antibodies (mAbs) were determined using a real-time surface plasmon resonance based Biacore 4000 biosensor. All binding studies were performed in 10 mM HEPES, 150 mM NaCl, 3 mM EDTA, and 0.05% v/v Surfactant Tween-20, pH 7.4 (HBS-ET) running buffer at 25° C. and 37° C. The Biacore CM5 sensor chip surface was first derivatized by amine coupling with either mouse anti-human Fc specific mAb (GE Healthcare, #BR100839) or goat anti-human Fcy specific polyclonal antibody (Jackson ImmunoResearch Laboratories, #BR-1008-39) to capture anti-NPR1 mAbs.

[2] = target: T2, human NPR1 extracellular domain expressed with a C-terminal mouse IgG2a (hNPR1-mFc) (human); assay: SPR, mAb captured, 25 C
T2 construct: also called hNPR1-Fc; human NPR1 dimer
T2 chain: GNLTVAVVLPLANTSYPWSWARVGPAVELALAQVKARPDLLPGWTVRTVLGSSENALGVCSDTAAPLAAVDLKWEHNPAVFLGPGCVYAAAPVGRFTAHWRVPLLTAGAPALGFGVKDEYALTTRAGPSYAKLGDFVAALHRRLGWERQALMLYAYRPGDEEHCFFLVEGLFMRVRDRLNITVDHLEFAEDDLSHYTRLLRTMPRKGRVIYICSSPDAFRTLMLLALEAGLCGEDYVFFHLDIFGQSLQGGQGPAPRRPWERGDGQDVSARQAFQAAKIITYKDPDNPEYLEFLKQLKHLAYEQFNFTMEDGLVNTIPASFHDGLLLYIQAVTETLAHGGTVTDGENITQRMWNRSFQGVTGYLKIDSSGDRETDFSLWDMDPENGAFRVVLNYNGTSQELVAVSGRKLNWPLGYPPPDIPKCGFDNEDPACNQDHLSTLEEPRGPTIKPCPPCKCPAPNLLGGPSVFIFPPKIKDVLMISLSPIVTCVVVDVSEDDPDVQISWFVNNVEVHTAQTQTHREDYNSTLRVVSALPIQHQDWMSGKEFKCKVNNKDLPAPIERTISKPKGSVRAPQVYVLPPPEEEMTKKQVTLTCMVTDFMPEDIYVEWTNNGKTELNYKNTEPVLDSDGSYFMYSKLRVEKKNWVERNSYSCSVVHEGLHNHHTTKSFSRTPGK
Procedure: as §1

[3] = target: T3, mouse NPR1 extracellular domain expressed with a C-terminal myc-myc-hexahistidine (mNPR1-MMH) (mouse, UniProt P18293 29-469); assay: SPR, mAb captured, 25 C
Procedure: as §1

[4] = target: T4, human NPR1 extracellular domain expressed with a C-terminal myc-myc-hexahistidine (hNPR1-MMH) (human, UniProt P16066 33-473); assay: SPR, mAb captured, 25 C
T4 construct: also called hNPR.mmh; monomeric human NPR1
Procedure: as §1

[5] = target: T5, mouse NPR1 extracellular domain expressed with a C-terminal mouse IgG2a (mNPR1-mFc) (mouse); assay: SPR, Tables 21 to 26
T5 chain: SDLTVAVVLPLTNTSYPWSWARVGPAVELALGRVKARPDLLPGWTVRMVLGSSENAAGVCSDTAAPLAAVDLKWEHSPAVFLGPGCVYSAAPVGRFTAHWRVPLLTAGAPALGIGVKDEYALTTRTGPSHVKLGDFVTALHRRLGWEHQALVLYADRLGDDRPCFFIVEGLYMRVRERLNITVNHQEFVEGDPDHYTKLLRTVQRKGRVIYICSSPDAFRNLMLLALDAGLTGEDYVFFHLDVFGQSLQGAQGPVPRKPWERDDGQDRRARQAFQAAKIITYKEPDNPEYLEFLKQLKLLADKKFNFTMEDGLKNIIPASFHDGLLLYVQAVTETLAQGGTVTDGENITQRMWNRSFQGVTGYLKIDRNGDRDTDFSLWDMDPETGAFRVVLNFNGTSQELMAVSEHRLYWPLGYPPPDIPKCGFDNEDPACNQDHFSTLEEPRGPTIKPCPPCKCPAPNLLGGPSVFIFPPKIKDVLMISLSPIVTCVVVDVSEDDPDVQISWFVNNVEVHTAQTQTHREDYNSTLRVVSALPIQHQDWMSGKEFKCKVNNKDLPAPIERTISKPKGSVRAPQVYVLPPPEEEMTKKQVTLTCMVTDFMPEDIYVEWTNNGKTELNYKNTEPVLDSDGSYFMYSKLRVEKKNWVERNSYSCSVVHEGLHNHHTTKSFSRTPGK
Procedure: as §1

[6] = target: T1, monkey NPR1 extracellular domain …; assay: SPR, mAb captured, 37 C
Procedure: as §1

[7] = target: T2, human NPR1 extracellular domain …; assay: SPR, mAb captured, 37 C
Procedure: as §1

[8] = target: T3, mouse NPR1 extracellular domain …; assay: SPR, mAb captured, 37 C
Procedure: as §1
Target sequence in this assay (P18293 other isoform, or with tags, fused parts or gaps): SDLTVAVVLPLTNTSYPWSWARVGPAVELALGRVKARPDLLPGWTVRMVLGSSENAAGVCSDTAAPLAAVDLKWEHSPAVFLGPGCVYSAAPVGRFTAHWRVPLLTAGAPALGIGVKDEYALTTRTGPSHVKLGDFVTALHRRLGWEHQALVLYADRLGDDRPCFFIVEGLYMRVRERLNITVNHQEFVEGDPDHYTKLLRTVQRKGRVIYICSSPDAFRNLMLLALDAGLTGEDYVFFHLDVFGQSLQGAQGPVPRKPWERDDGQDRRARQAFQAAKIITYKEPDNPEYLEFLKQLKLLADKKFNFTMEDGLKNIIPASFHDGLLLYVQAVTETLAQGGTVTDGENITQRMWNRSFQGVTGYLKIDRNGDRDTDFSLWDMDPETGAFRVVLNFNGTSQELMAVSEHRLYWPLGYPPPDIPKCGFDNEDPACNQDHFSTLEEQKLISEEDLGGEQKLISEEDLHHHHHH

[9] = target: T4, human NPR1 extracellular domain …; assay: SPR, mAb captured, 37 C
Procedure: as §1

T4 sequence (P16066 other isoform, or with tags, fused parts or gaps): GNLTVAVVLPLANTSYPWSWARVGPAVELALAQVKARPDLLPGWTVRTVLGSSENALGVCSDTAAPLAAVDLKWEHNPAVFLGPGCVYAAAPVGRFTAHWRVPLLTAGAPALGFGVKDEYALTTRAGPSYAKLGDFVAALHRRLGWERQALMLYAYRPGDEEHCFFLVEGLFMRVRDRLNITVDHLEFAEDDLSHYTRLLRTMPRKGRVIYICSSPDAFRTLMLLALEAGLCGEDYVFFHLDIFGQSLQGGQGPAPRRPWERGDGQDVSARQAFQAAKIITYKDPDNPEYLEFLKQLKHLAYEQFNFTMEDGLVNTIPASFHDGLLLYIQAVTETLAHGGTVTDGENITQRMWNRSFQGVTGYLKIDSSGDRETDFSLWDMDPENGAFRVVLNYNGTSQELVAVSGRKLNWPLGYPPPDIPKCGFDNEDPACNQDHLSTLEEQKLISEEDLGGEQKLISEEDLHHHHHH

B1: mAb25479 (antibody, V domains shown)
VH: QVQLVQSGAEVKKPGASVKVSCKASGYTFTGYYIHWVRQAPGQGLEWMGWINPNSIGTNYAQKFQGRVTLTRDTSISTAYMELSSLRSDDTAVYYCARGGSSSYYYYYYGMDVWGQGTTVTVSS
VL: DIQMTQSPSSLSASVGDRVTITCRASQSIDNYLNWYQQKPGKAPKLLIYVASSLQSGVPSRFSGSGSGTDFTLTISSLQPEDFATYYCQQSYSTPLTFGGGTKVEIK
100 nM Ag Bound (RU) [1]: 41 RU
Kd [1]: 246 nM
koff [1]: 0.00682 s⁻¹
kon [1]: 27700 M⁻¹ s⁻¹
t½ [1]: 1.7 min
100 nM Ag Bound (RU) [2]: 26 RU
Kd [2]: 22.4 nM
koff [2]: 0.000852 s⁻¹
kon [2]: 38000 M⁻¹ s⁻¹
t½ [2]: 13.6 min
100 nM Ag Bound (RU) [3]: 0 RU
binding result [3]: no binding (tested: 100 nM)
100 nM Ag Bound (RU) [4]: 16 RU
Kd [4]: 482 nM
koff [4]: 0.00673 s⁻¹
kon [4]: 14000 M⁻¹ s⁻¹
t½ [4]: 1.7 min
binding result [5]: no binding
100 nM Ag Bound (RU) [6]: 43 RU
Kd [6]: 360 nM
koff [6]: 0.0142 s⁻¹
kon [6]: 39600 M⁻¹ s⁻¹
t½ [6]: 0.8 min
100 nM Ag Bound (RU) [7]: 47 RU
Kd [7]: 41.2 nM
koff [7]: 0.00139 s⁻¹
kon [7]: 33700 M⁻¹ s⁻¹
t½ [7]: 8.3 min
100 nM Ag Bound (RU) [8]: 1 RU
100 nM Ag Bound (RU) [9]: 16 RU
Kd [9]: 689 nM
koff [9]: 0.0157 s⁻¹
kon [9]: 22800 M⁻¹ s⁻¹
t½ [9]: 0.7 min

B2: mAb25491 (antibody, V domains shown)
VH: QVQLVQSGAEVMKPGASVKVSCKASGYTFTGYYIHWVRQAPGQGLEWMGWITPNSGATNYAQKFQGRVTLTRDTSISTAYMELTRLKSDDTAVYYCARGGQLEFFYYYYGMDVWGQGTTVTVSS
VL: DIQMTQSPSSLSASAGDRVTITCRASQSIDSYLNWYQQKPGKAPKLLISATSGFQSGVPSRFSGSGSGTDFTLTISSLQPEDFGTYYCQQSYTTPITFGQGTRLEIK
100 nM Ag Bound (RU) [1]: 81 RU
Kd [1]: 30.5 nM
koff [1]: 0.00128 s⁻¹
kon [1]: 42000 M⁻¹ s⁻¹
t½ [1]: 9 min
100 nM Ag Bound (RU) [2]: 36 RU
Kd [2]: 1.24 nM
koff [2]: 0.000124 s⁻¹
kon [2]: 101000 M⁻¹ s⁻¹
t½ [2]: 92.8 min
100 nM Ag Bound (RU) [3]: 0 RU
binding result [3]: no binding (tested: 100 nM)
100 nM Ag Bound (RU) [4]: 37 RU
Kd [4]: 37.6 nM
koff [4]: 0.000983 s⁻¹
kon [4]: 26200 M⁻¹ s⁻¹
t½ [4]: 11.7 min
binding result [5]: no binding
100 nM Ag Bound (RU) [6]: 106 RU
Kd [6]: 78.4 nM
koff [6]: 0.00457 s⁻¹
kon [6]: 58300 M⁻¹ s⁻¹
t½ [6]: 2.5 min
100 nM Ag Bound (RU) [7]: 70 RU
Kd [7]: 8.66 nM
koff [7]: 0.000363 s⁻¹
kon [7]: 41900 M⁻¹ s⁻¹
t½ [7]: 31.8 min
100 nM Ag Bound (RU) [8]: 0 RU
100 nM Ag Bound (RU) [9]: 51 RU
Kd [9]: 127 nM
koff [9]: 0.00453 s⁻¹
kon [9]: 35600 M⁻¹ s⁻¹
t½ [9]: 2.5 min
